US20240270821A1, “GIP/GLP1/GCG TRI-RECEPTOR AGONISTS AND USES THEREOF” (priority 2023, published 2024)

B1: Example 91 (peptide)
chain: YXQGTFTSDFSXXLDKKAQXAFIEYLLAGGPSSGAPPPSGEX
modifications: synthetic construct; SITE 2: note = 2-Aminoisobutyric Acid; SITE 12: note = L-ornithine; SITE 13: note = alpha-methyl-leucine; SITE 17: note = Lysine is chemically modified through conjugation of the epsilon-amino group of the Lysine side chain with (2-[2-(2-Amino-ethoxy)-ethoxy]-acetyl)-(gamma-Glu)
B2: Example 954 (peptide)
chain: YXQGTFTSDXSQXLDKKAQXAFIEXLIEGGPSSGAPPPSGSEE
modifications: non-natural residues; Lys acylated C18 diacid; C-terminal amide; synthetic construct; SITE 2: note = 2-Aminoisobutyric Acid; SITE 10: note = 3-(4-Pyridyl)-L-alanine; SITE 13: note = alpha-methyl-leucine; SITE 17: note = Lysine is chemically modified through conjugation of the epsilon-amino group of the Lysine side chain with (2-[2-(2-Amino-ethoxy)-ethoxy]-acetyl)
B3: Example 962 (peptide)
chain: YXQGTFTSDXSRXLDKKAQXAFIEYLIAGGPSSGAPPPSGSEE
modifications: synthetic construct; SITE 2: note = 2-Aminoisobutyric Acid; SITE 10: note = 3-(4-Pyridyl)-L-alanine; SITE 13: note = alpha-methyl-leucine; SITE 17: note = Lysine is chemically modified through conjugation of the epsilon-amino group of the Lysine side chain with (gamma-Glu)2-CO-(CH2)16-CO2H; SITE 20:
B4: Example 964 (peptide)
chain: YXQGTFTSDXSXXLDKKAQXAFIEYLIAGGESSGAPPPSGSEE
modifications: synthetic construct; SITE 2: note = 2-Aminoisobutyric Acid; SITE 10: note = 3-(4-Pyridyl)-L-alanine; SITE 12: note = L-ornithine; SITE 13: note = alpha-methyl-leucine; SITE 17: note = Lysine is chemically modified through conjugation of the epsilon-amino group of the Lysine side chain with (gamma-Gl)
B5: Example 965 (peptide)
chain: YXQGTFTSDXSRXLDKKAQXAFIEYLIAGGESSGAPPPSGSEE
modifications: synthetic construct; SITE 2: note = 2-Aminoisobutyric Acid; SITE 10: note = 3-(4-Pyridyl)-L-alanine; SITE 13: note = alpha-methyl-leucine; SITE 17: note = Lysine is chemically modified through conjugation of the epsilon-amino group of the Lysine side chain with (gamma-Glu)2-CO-(CH2)16-CO2H; SITE 20:
B6: Example 976 (peptide)
chain: YXQGTFTSDXSXXLDXKAQXEFIEXLLEGGPSSGAPPPSGSEE
modifications: non-natural residues; lipidated Lys; C-terminal amide; synthetic construct; SITE 2: note = 2-Aminoisobutyric Acid; SITE 10: note = 3-(4-Pyridyl)-L-alanine; SITE 12: note = L-ornithine; SITE 13: note = alpha-methyl-leucine; SITE 16: note = L-ornithine; SITE 17: note = Lysine is chemically modified through conjugation of the epsilon-amino group of the Lys
B7: Example 974 (peptide)
chain: YXQGTFTSDXSXXLDXKAQXXFIEXLIEGGPSSGAPPPSGSEE
modifications: Aib, 4Pal, Orn, Me4Pal, alpha-methyl-Tyr, lipidated Lys, amide; synthetic construct; SITE 2: note = 2-Aminoisobutyric Acid; SITE 10: note = 3-(4-Pyridyl)-L-alanine; SITE 12: note = L-ornithine; SITE 13: note = alpha-methyl-leucine; SITE 16: note = L-ornithine; SITE 17: note = Lysine is chemically modified through conjugation of the epsilon-amino group of the Lys
B8: Example 967 (peptide)
chain: YXQGTFTSDXSXXLDKKAQXAFIEXLIEGGPSSGAPPPSGSEE
modifications: Aib, 4Pal, Orn, Me4Pal, αMeY; acylated lysine; amide; synthetic construct; SITE 2: note = 2-Aminoisobutyric Acid; SITE 10: note = 3-(4-Pyridyl)-L-alanine; SITE 12: note = L-ornithine; SITE 13: note = alpha-methyl-leucine; SITE 17: note = Lysine is chemically modified through conjugation of the epsilon-amino group of the Lysine side chain with (gamma-Gl)
B9: Example 963 (peptide)
chain: YXQGTFTSDXSQXLDKKAQXAFIEYLIAGGESSGAPPPSGSEE
modifications: synthetic construct; SITE 2: note = 2-Aminoisobutyric Acid; SITE 10: note = 3-(4-Pyridyl)-L-alanine; SITE 13: note = alpha-methyl-leucine; SITE 17: note = Lysine is chemically modified through conjugation of the epsilon-amino group of the Lysine side chain with (gamma-Glu)2-CO-(CH2)16-CO2H; SITE 20:
B10: Example 957 (peptide)
chain: YXQGTFTSDXSQXLDKKAQXAFIEXLIEGGPSSGAPPPSGSEE
modifications: non-natural residues; Lys acylated C18 diacid; C-terminal amide; synthetic construct; SITE 2: note = 2-Aminoisobutyric Acid; SITE 10: note = 3-(4-Pyridyl)-L-alanine; SITE 13: note = alpha-methyl-leucine; SITE 17: note = Lysine is chemically modified through conjugation of the epsilon-amino group of the Lysine side chain with (gamma-Glu)2-CO-(CH2)16-CO2H; SITE 20:
B11: Example 955 (peptide)
chain: YXQGTFTSDXSXXLDKKAQXAFIEXLIEGGPSSGAPPPSGSEE
modifications: Aib, 4Pal, Me4Pal, Orn, alpha-methyl-Leu, lipidated Lys, amide; synthetic construct; SITE 2: note = 2-Aminoisobutyric Acid; SITE 10: note = 3-(4-Pyridyl)-L-alanine; SITE 12: note = L-ornithine; SITE 13: note = alpha-methyl-leucine; SITE 17: note = Lysine is chemically modified through conjugation of the epsilon-amino group of the Lysine side chain with (2-[2-(2-
B12: Example 973 (peptide)
chain: YXQGTFTSDXSXXLDXKAQXEFIEXLIEGGPSSGAPPPSGSEE
modifications: Aib, 4Pal, Orn, Me4Pal, αMeY; acylated lysine; amide; synthetic construct; SITE 2: note = 2-Aminoisobutyric Acid; SITE 10: note = 3-(4-Pyridyl)-L-alanine; SITE 12: note = L-ornithine; SITE 13: note = alpha-methyl-leucine; SITE 16: note = L-ornithine; SITE 17: note = Lysine is chemically modified through conjugation of the epsilon-amino group of the Lys

What was measured:
Test in all cases: cell-based or functional assay
hGLP-1R = hGLP-1R (Homo sapiens, UniProt P43220)
hGLP-1R, sequence (P43220 24-463): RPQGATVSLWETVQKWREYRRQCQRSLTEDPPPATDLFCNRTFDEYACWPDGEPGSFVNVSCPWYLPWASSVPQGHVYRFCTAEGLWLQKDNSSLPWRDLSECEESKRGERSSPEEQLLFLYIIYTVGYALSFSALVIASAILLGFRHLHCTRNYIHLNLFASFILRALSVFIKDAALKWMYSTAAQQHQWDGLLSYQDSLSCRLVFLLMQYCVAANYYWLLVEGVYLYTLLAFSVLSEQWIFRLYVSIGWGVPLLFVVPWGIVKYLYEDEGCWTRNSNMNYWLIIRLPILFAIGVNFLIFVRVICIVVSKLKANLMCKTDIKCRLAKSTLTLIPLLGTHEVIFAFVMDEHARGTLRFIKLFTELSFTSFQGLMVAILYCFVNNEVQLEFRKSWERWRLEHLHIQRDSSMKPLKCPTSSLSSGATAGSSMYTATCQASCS

[1] = target: T1, human GIP receptor (human) (UniProt P48546)
T1 sequence (looked up): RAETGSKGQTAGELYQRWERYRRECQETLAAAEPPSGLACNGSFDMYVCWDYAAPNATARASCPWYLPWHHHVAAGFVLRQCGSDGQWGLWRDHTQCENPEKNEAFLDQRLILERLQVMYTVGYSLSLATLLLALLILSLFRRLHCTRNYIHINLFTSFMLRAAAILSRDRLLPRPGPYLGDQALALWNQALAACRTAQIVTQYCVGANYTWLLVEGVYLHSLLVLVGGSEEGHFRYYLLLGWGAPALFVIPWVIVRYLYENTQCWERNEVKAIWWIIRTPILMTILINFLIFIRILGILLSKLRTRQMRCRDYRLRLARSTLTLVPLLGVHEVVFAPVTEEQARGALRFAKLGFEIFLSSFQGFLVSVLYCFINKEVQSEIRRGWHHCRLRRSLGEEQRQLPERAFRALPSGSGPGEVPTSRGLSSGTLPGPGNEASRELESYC

[2] = target: human glucagon receptor (human) (UniProt P47871)
human glucagon receptor (human), sequence (P47871 26-477): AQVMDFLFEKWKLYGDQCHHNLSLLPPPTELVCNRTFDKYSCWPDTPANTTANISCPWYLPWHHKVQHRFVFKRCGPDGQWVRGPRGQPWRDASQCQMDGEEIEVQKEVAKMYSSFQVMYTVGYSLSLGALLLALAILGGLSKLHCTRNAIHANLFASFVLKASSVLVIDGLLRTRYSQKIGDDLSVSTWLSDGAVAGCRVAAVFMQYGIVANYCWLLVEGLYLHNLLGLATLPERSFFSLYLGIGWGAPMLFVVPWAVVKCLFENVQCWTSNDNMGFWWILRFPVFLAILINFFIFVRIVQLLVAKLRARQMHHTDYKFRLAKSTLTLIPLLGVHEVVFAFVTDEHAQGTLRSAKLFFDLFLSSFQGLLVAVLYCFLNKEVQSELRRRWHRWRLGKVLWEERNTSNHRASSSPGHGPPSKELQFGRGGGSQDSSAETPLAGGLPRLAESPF

| Binder | Relative cAMP EC50 (hGLP-1R) [nM] | cAMP Rel EC50, nM (in the presence of 1% HSA) (hGLP-1R) [nM] | Relative cAMP EC50 [1] [nM] | cAMP Rel EC50, nM (in the presence of 1% HSA) [1] [nM] | Relative cAMP EC50 [2] [nM] | cAMP Rel EC50, nM (in the presence of 1% HSA) [2] [nM] | cAMP Rel EC50, nM (1% HSA) (hGLP-1R) [nM] | cAMP Rel EC50, nM (1% HSA) [1] [nM] | cAMP Rel EC50, nM (1% HSA) [2] [nM] |
| --- | --- | --- | --- | --- | --- | --- | --- | --- | --- |
| B1 | 3.39 | 356 | 0.243 | 23.9 | 9.13 | 1200 |  |  |  |
| B2 |  |  |  |  |  |  | 357 | 35.3 | 450 |
| B3 | 1.36 |  | 0.0972 |  | 3.13 |  | 132 | 9.71 | 485 |
| B4 | 2.67 |  | 0.288 |  | 2.75 |  | 267 | 21.4 | 324 |
| B5 | 1.39 |  | 0.13 |  | 3.35 |  | 194 | 23.2 | 430 |
| B6 |  |  |  |  |  |  | 2860 | 82.7 | 848 |
| B7 |  |  |  |  |  |  | 283 | 80.9 | 870 |
| B8 |  |  |  |  |  |  | 345 | 39.5 | 508 |
| B9 | 1.77 |  | 0.244 |  | 5.81 |  | 215 | 25.1 | 900 |
| B10 |  |  |  |  |  |  | 747 | 25 | 947 |
| B11 |  |  |  |  |  |  | 1380 | 42.3 | 366 |
| B12 |  |  |  |  |  |  | 1140 | 60.1 | 2270 |
